Assay results reported in patent publication US9339557B2, “Photosensitizer-metal nanoparticle complex and composition containing the complex for photodynamic therapy or diagnosis” (NATIONAL CANCER CENTER, priority 2009, dated 2016).

Tests used:
Type in all cases: cell-based, human
HT1080 cells = experiment: Cell viability after photodynamic therapy (MTT), cell line HT1080; details: 5 μM equivalent of photosensitizer, 15 hours, +PDT laser 670 nm, 40 mW/cm^2, 10 J/cm^2, MTT after 24 hours
Experimental: For in vitro phototoxicity tests 9,000 HT1080 cells were seeded in each well of 96-well plates. The next day, the photosensitizer-polypeptide conjugate (MMP2P) prepared in Preparation Example 2 and the photosensitizer-metal nanoparticle complex (MMP2P-GNR) prepared in Preparation Example 3 were diluted with a cell culture medium, respectively, thereby preparing an MMP2 probe (MMP2P) solution and a photosensitizer-metal nanoparticle complex (MMP2P-GNR) solution, each of which has a final concentration corresponding to 5 μM equivalent weight of the photosensitizer. Each solution was added at 200 μl per well to some wells, and the plate was maintained at 37° C. for 15 hours. Meanwhile, for the control group, the same volume of a fresh culture medium in which the photosensitizer is not included was added to the other wells. Afterwards, the cells were washed twice with a cell culture medium, and for a photodynamic therapy (PDT) group, photodynamic therapy was carried out using laser at 670 nm under conditions including a dose density of 40 mW/cm^2 and a dose of 10 J/cm^2. After 24 hours, cell viability was measured by MTT analysis.

BT20 cells = experiment: Cell viability after photodynamic therapy (MTT), cell line BT20; details: 5 μM equivalent of photosensitizer, 15 hours, +PDT laser 670 nm, 40 mW/cm^2, 10 J/cm^2, MTT after 24 hours
Experimental: 9,000 BT20 cells were seeded in each well of 96-well plates. The next day, the photosensitizer-polypeptide conjugate prepared in Preparation Example 2 and the photosensitizer-metal nanoparticle complex prepared in Preparation Example 2 were diluted with a cell culture medium, thereby preparing an MMP2 probe (MMP2P) solution and a photosensitizer-metal nanoparticle complex (MMP2P-GNR) solution, which have a final concentration corresponding to 5 μM equivalent weight of the photosensitizer. Each solution was added at 200 μl per well to some wells, and the plate was maintained at 37° C. for 15 hours. Meanwhile, for the control group, the same volume of a fresh culture medium in which the photosensitizer was not included was added. Afterwards, the cells were washed twice with a cell culture medium, and for a photodynamic therapy (PDT) group, photodynamic therapy was performed using laser at 670 nm under conditions including a light dose density of 40 mW/cm^2, and a light dose of 10 J/cm^2. After 24 hours, cell viability was measured by MTT analysis.

[1] = system: HT1080 cells overexpressing MMP2; experiment: Fluorescence activation of photosensitizer-metal nanoparticle complex, confocal microscopy; details: HT1080 (MMP2 overexpressing) compared with BT20 (MMP2 underexpressing); 5 μM equivalent of photosensitizer, 15 hours, 37° C.; Ex. 405 nm, Em. 646-753 nm
Experimental: HT1080 cells (human fibrosarcoma cell line) overexpressing MMP2 and BT20 cells (human mammary adenocarcinoma cell line) underexpressing MMP2 (see Bremer C. et al., Nature Medicine 7(6) 743-748, 2001) were obtained from ATCC (Manassas, Va.). MMP2-positive HT1080 (90,000 cells) and MMP2-negative BT20 cells (90,000 cells) in culture media were seeded into each wells of LabTek II Chambered Coverglass. Afterwards, the photosensitizer-metal nanoparticle complex solution prepared in Preparation Example 2 was diluted with a culture medium to have 5 μM equivalent weight of the photosensitizer, and added at 600 μl per well. The cells were incubated in an incubator at 37° C. for 15 hours. After the culture medium including the complex was removed, and the cells were washed three times with a fresh culture medium, fluorescence was observed using a confocal microscope (Ex. 405 nm, Em. 646-753 nm).

MMP2P-GNR (CGGPLGVRGK) was tested, and the cell viability (HT1080 cells) was 16%, the cell viability (BT20 cells) was 63% and the fluorescence in cells [1] was “much stronger fluorescence”.
